Test results: patent US20220349880

What was measured:
[1] = system: Peptide H-2: H2N-(CH2)4-CO-Pro-Thr-Arg-Phe-Val-Gly-NHCH2-Fc
[2] = system: Peptide H-5: H2N-(CH2)4-CO-Ala-Pro-Leu-Arg-Phe-Gly-Ala-Ala-NHCH2-Fc
[3] = system: Peptide H-16: H2N-(CH2)4-CO-Pro-Leu-Ala-Gly-Val-Ala-NH-CH2-Fc
[4] = system: Peptide H-6: H2N-(CH2)4-CO-Pro-Leu-Gly-Phe-Val-Ala-NHCH2-Fc
[5] = system: Peptide H-1: H2N-(CH2)4-CO-Lys-Val-Arg-Phe-Val-Gly-NHCH2-Fc
[6] = system: Peptide H-4: H2N-(CH2)4-CO-Pro-Val-Gly-Phe-Val-Ala-NHCH2-Fc
[7] = system: Peptide H-3: H2N-(CH2)4-CO-Pro-Leu-Arg-Phe-Gly-Ala-NH-CH2-Fc
[8] = system: Peptide H-15: H2N-(CH2)4-CO-Pro-Leu-Ala-Phe-Val-Ala-NH-CH2-Fc
[9] = system: Peptide H-7: H2N-(CH2)4-CO-Pro-Leu-Gly-Gly-Val-Ala-NHCH2-Fc

In the case of “recombinant human cathepsin B (rhCB), activated by incubation in 25 mM MES buffer (pH 5.0) containing 5 mM DTT for 15 min”, the “proteolysis rate (electrochemical measurements, fluorogenic assays and HPLC-MS analysis); one of the 'other candidates' with a lower rate” value (from here on “proteolysis rate … with a lower rate”) [1] is reported as “three peptides H-3, H-15 and H-16 were selected for this study due to the higher proteolysis rates by cathepsin B compared to other candidates”, the “proteolysis rate … with a lower rate” value [2] is reported as “three peptides H-3, H-15 and H-16 were selected for this study due to the higher proteolysis rates by cathepsin B compared to other candidates” and the “proteolysis rate (electrochemical measurements, fluorogenic assays and HPLC-MS analysis)” value [3] is reported as “three peptides H-3, H-15 and H-16 were selected for this study due to the higher proteolysis rates by cathepsin B compared to other candidates”. For the same substance, the “proteolysis rate … with a lower rate” value [4] was “three peptides H-3, H-15 and H-16 were selected for this study due to the higher proteolysis rates by cathepsin B compared to other candidates”, the “proteolysis rate … with a lower rate” value [5] was “three peptides H-3, H-15 and H-16 were selected for this study due to the higher proteolysis rates by cathepsin B compared to other candidates” and the “proteolysis rate … with a lower rate” value [6] was “three peptides H-3, H-15 and H-16 were selected for this study due to the higher proteolysis rates by cathepsin B compared to other candidates”. For the same substance, the “proteolysis rate (electrochemical measurements, fluorogenic assays and HPLC-MS analysis)” value [7] was “three peptides H-3, H-15 and H-16 were selected for this study due to the higher proteolysis rates by cathepsin B compared to other candidates”, the “proteolysis rate (electrochemical measurements, fluorogenic assays and HPLC-MS analysis)” value [8] was “three peptides H-3, H-15 and H-16 were selected for this study due to the higher proteolysis rates by cathepsin B compared to other candidates” and the “proteolytic activity among about 30 synthesized peptides” value [8] was “has shown the highest proteolytic activity by cathepsin B”. For the same substance, the “proteolysis rate … with a lower rate” value [9] was “three peptides H-3, H-15 and H-16 were selected for this study due to the higher proteolysis rates by cathepsin B compared to other candidates”.
